Laboratory results reported in paper PMC9102066, “Cloning and Functional Characterization of Dog OCT1 and OCT2: Another Step in Exploring Species Differences in Organic Cation Transporters” (International Journal of Molecular Sciences, 2022).

B1: mouse OCT1 (Mus musculus) (protein)
chain: MPTVDDVLEHVGEFGWFQKQAFLLLCLISASLAPIYVGIVFLGFTPDHHCRSPGVAELSQRCGWSPAEELNYTVPGLGSAGEASFLSQCMKYEVDWNQSTLDCVDPLSSLAANRSHLPLSPCEHGWVYDTPGSSIVTEFNLVCGDAWKVDLFQSCVNLGFFLGSLVVGYIADRFGRKLCLLVTTLVTSLSGVLTAVAPDYTSMLLFRLLQGMVSKGSWVSGYTLITEFVGSGYRRTTAILYQVAFTVGLVGLAGVAYAIPDWRWLQLAVSLPTFLFLLYYWFVPESPRWLLSQKRTTQAVRIMEQIAQKNRKVPPADLKMMCLEEDASERRSPSFADLFRTPSLRKHTLILMYLWFSCAVLYQGLIMHVGATGANLYLDFFYSSLVEFPAAFIILVTIDRIGRIYPIAASNLVAGAACLLMIFIPHELHWLNVTLACLGRMGATIVLQMVCLVNAELYPTFIRNLGMMVCSALCDLGGIFTPFMVFRLMEVWQALPLILFGVLGLSAGAVTLLLPETKGVALPETIEEAENLGRRKSKAKENTIYLQVQTGKSPHT
notes: expressed in transfected cells; host or cells: HEK293 (Flp-In system)
B2: human OCT2 (Homo sapiens) (protein)
chain: MPTTVDDVLEHGGEFHFFQKQMFFLLALLSATFAPIYVGIVFLGFTPDHRCRSPGVAELSLRCGWSPAEELNYTVPGPGPAGEASPRQCRRYEVDWNQSTFDCVDPLASLDTNRSRLPLGPCRDGWVYETPGSSIVTEFNLVCANSWMLDLFQSSVNVGFFIGSMSIGYIADRFGRKLCLLTTVLINAAAGVLMAISPTYTWMLIFRLIQGLVSKAGWLIGYILITEFVGRRYRRTVGIFYQVAYTVGLLVLAGVAYALPHWRWLQFTVSLPNFFFLLYYWCIPESPRWLISQNKNAEAMRIIKHIAKKNGKSLPASLQRLRLEEETGKKLNPSFLDLVRTPQIRKHTMILMYNWFTSSVLYQGLIMHMGLAGDNIYLDFFYSALVEFPAAFMIILTIDRIGRRYPWAASNMVAGAACLASVFIPGDLQWLKIIISCLGRMGITMAYEIVCLVNAELYPTFIRNLGVHICSSMCDIGGIITPFLVYRLTNIWLELPLMVFGVLGLVAGGLVLLLPETKGKALPETIEEAENMQRPRKNKEKMIYLQVQKLDIPLN
notes: as for B1

Experiments:
[1] = substrate: CC(Cc1ccc(O)cc1)NCC(O)c1cc(O)cc(O)c1; assay: cells, lysate or membranes named; conditions: HEK293, 2 min, Michaelis–Menten fit, pH 7.4
[2] = substrate: O=C(O[C@H]1C[C@H]2CC[C@@H](C1)[N+]21CCCC1)C(O)(c1ccccc1)c1ccccc1; assay: Uptake in HEK293 cells stably overexpressing mouse OCT1; assay type: in vitro ADME; conditions: other: OCT1-mediated uptake, HEK293, 2 min, Michaelis–Menten fit; pH 7.4
Experimental: (§1) The total uptake is shown for the overexpressing and control cells (left hand side). OCT1-mediated uptake (right hand side) was calculated by subtracting the uptake of control cells (pcDNA5) from the uptake of OCT1-overexpressing cells. The means and standard errors of the means are shown for at least three independent experiments.
(§2) At 48 h prior to the experiment, 6 × 10^5 cells were seeded per well in 12-well plates pre-coated with poly-D-lysine.
(§3) Cellular uptake experiments were performed at 37 °C and pH 7.4 using Hanks’ Buffered Salt Solution (HBSS) supplemented with 10 mM HEPES (referred to as HBSS+ in the following). Cells were washed with 1 mL pre-warmed (37 °C) HBSS+ and uptake was initiated by adding 400 µL of pre-warmed HBSS+ containing the substrate. Uptake was allowed for exactly 2 min and stopped by adding 2 mL ice-cold HBSS+. Cells were washed twice with 2 mL ice-cold HBSS+ then lysed with 80% acetonitrile supplemented with internal standard. The intracellularly accumulated substrate concentrations were measured using LC-MS/MS as described in the following and normalized to the amount of total protein in the samples as measured using the bicinchoninic acid assay [49].
(§4) Intracellular substrate concentrations were quantified using LC-MS/MS. […] The pellet was reconstituted with 200 µL 0.1% formic acid and between 5 and 10 µL was injected into the LC-MS/MS system (Table S2).
(§5) An API4000 QTRAP tandem mass spectrometer with ESI interface (AB SCIEX, Darmstadt, Germany) coupled to a Shimadzu Nexera X2 UHPLC system with LC 30AD pumps and SiL 30AC autosampler (Shimadzu, Duisburg, Germany) was used for analysis.
(§6) Intrinsic clearance CLint was calculated by dividing vmax by KM for each experiment. Kinetic parameters were compared between OCT1 orthologs using an ANOVA followed by Tukey’s honestly significant difference post hoc comparisons in SPSS Statistics version 28 (SPSS Inc., IBM, Chicago, IL, USA).

[3] = substrate: CN(C)C(=N)N=C(N)N; assay: as above; assay type: in vitro ADME; conditions: other: OCT1-mediated uptake, HEK293, 2 min, Michaelis–Menten fit; pH 7.4
Experimental: as §1, §2, §3, §4, §5, §6

[4] = substrate: CCCC[N+]1(C)[C@@H]2C[C@@H](OC(=O)[C@H](CO)c3ccccc3)C[C@H]1[C@@H]1O[C@@H]12; assay: as above; assay type: in vitro ADME; conditions: other: OCT1-mediated uptake, HEK293, 2 min, Michaelis–Menten fit; pH 7.4
Experimental: as §1, §2, §3, §4, §5, §6

[5] = substrate: O=C(O[C@H]1C[C@H]2CC[C@@H](C1)[N+]21CCCC1)C(O)(c1ccccc1)c1ccccc1; assay: Uptake in HEK293 cells stably overexpressing human OCT2; assay type: in vitro ADME; conditions: other: OCT2-mediated uptake, HEK293, 2 min, Michaelis–Menten fit; pH 7.4
Experimental: (§7) The total uptake is shown for the overexpressing and control cells (left hand side). OCT2-mediated uptake (right hand side) was calculated by subtracting the uptake of control cells (pcDNA5) from the uptake of OCT2-overexpressing cells. The means and standard errors of the means are shown for at least three independent experiments.
(§8) Cells were cultured in Dulbecco’s Modified Eagle’s Medium (DMEM) supplemented with 10% FBS, 100 U/mL penicillin, and 100 µg/mL streptomycin at 37 °C and 5% CO2. Cells were passaged twice a week.
as §2, §3, §4, §5
(§9) Intrinsic clearance CLint was calculated by dividing vmax by KM for each experiment.

[6] = substrate: CCCC[N+]1(C)[C@@H]2C[C@@H](OC(=O)[C@H](CO)c3ccccc3)C[C@H]1[C@@H]1O[C@@H]12; assay: as above; assay type: in vitro ADME; conditions: other: OCT2-mediated uptake, HEK293, 2 min, Michaelis–Menten fit; pH 7.4
Experimental: as §7, §8, §2, §3, §4, §5, §9

| Protein | Km ([1]; other: OCT1-mediated uptake) | Km [2] | Vmax [2] | Vmax/Km [2] | Km [3] | Vmax [3] | Vmax/Km [3] | Km [4] | Vmax [4] | Vmax/Km [4] | Km [5] | Vmax [5] | Vmax/Km [5] | Km [6] | Vmax [6] | Vmax/Km [6] | Km ([1]; other: OCT2-mediated uptake) |
| --- | --- | --- | --- | --- | --- | --- | --- | --- | --- | --- | --- | --- | --- | --- | --- | --- | --- |
| B1 | 10.7 ± 1.09 µM | 1.92 ± 0.85 µM | 0.000255 µmol/min/mg | 180 µL/min/mg | 298 ± 46.9 µM | 0.0109 ± 0.00125 µmol/min/mg | 38.7 µL/min/mg | 6.60 ± 1.13 µM | 0.000778 µmol/min/mg | 131 µL/min/mg | – | – | – | – | – | – | – |
| B2 | – | – | – | – | – | – | – | – | – | – | 0.49 ± 0.15 µM | 0.000119 µmol/min/mg | 278 µL/min/mg | 7.62 ± 0.85 µM | 0.000616 µmol/min/mg | 81.6 µL/min/mg | 8.81 ± 0.55 µM |
